Source: article PMC7611026 (Journal of molecular biology, 2008)
One block for each binder: values may come before it.

How the values were obtained:
[1] = biological target: RNase E, genomically encoded, C-terminally FLAG-tagged (rne-FLAG, strain TM522) (E. coli K12, UniProt P21513 1-1061); experiment: co-IP
[2] = biological target: T1, RhlB, individually prepared recombinant (E. coli, UniProt P0A8J8 1-421); experiment: cross-linking
T1 sequence: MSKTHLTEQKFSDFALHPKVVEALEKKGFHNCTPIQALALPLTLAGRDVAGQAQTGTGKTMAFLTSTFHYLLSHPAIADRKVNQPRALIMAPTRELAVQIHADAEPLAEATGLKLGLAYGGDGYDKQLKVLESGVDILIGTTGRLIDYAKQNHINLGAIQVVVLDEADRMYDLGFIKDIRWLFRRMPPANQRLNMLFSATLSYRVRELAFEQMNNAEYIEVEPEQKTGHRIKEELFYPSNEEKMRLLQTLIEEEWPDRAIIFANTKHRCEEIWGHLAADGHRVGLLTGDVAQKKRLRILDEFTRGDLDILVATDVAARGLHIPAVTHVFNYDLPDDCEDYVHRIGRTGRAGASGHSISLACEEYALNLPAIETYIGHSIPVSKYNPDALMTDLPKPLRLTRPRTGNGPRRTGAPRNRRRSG

[3] = biological target: RNase E(1–762), hexahistidine-tagged, coexpressed with RhlB (E. coli) (UniProt P21513); experiment: pull-down + SEC
RNase E(1–762), hexahistidine-tagged, coexpressed with RhlB (E. coli), sequence (P21513 1-762): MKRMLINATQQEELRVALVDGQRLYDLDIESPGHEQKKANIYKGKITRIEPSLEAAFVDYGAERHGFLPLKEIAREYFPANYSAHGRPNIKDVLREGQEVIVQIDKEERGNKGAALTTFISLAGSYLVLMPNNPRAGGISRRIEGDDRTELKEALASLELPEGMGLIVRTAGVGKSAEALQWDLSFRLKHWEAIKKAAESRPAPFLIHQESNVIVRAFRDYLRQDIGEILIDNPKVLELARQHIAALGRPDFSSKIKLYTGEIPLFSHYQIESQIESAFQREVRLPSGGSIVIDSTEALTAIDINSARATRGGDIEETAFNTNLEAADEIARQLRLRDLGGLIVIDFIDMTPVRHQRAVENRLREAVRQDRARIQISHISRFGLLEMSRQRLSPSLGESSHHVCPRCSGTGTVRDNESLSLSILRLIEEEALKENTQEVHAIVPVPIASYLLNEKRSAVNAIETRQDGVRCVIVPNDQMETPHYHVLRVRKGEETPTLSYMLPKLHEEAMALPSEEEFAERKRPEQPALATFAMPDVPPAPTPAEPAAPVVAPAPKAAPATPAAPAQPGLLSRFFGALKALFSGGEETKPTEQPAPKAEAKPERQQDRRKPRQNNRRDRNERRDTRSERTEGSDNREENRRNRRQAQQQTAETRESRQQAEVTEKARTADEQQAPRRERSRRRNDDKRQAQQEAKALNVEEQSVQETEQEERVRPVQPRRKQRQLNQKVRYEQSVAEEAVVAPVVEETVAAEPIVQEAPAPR

RNase E, genomically encoded, C-terminally FLAG-tagged (rne-FLAG, strain TM522), sequence (P21513 whole entry): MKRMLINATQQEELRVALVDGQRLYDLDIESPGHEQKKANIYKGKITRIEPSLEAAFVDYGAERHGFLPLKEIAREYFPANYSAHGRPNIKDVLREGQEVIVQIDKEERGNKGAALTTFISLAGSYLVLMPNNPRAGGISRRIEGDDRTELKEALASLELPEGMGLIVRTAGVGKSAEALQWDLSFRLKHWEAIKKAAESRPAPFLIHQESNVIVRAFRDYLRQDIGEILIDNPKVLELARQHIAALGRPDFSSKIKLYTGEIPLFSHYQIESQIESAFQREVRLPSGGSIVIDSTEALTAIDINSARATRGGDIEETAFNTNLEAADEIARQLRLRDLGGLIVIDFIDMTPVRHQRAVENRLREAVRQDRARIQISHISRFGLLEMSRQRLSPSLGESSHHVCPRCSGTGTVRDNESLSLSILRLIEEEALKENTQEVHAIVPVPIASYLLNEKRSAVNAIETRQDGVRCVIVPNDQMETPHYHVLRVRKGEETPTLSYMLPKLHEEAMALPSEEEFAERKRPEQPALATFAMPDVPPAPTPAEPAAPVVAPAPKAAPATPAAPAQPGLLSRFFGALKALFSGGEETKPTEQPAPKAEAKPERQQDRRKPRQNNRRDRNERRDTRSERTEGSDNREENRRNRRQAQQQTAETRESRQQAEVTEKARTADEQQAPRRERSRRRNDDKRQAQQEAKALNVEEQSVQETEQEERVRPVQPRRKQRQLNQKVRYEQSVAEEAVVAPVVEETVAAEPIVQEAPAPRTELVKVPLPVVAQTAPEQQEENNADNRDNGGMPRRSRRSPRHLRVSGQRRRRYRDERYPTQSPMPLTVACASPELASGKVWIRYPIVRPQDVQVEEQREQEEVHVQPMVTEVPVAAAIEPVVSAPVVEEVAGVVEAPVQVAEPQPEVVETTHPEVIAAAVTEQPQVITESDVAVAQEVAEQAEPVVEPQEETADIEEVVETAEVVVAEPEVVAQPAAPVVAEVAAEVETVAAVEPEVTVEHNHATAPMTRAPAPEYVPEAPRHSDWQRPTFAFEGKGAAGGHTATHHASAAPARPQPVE

PNPase component in aceE/aceF-null cells relative to wild-type control cells [1]: ~3 fold | stoichiometry N [1]: ~2 PNPase monomers per RNase E monomer
B1: PNPase, endogenous, in the cell-extracted FLAG-tagged degradosome (enzyme)
chain: MLNPIVRKFQYGQHTVTLETGMMARQATAAVMVSMDDTAVFVTVVGQKKAKPGQDFFPLTVNYQERTYAAGRIPGSFFRREGRPSEGETLIARLIDRPIRPLFPEGFVNEVQVIATVVSVNPQVNPDIVAMIGASAALSLSGIPFNGPIGAARVGYINDQYVLNPTQDELKESKLDLVVAGTEAAVLMVESEAQLLSEDQMLGAVVFGHEQQQVVIQNINELVKEAGKPRWDWQPEPVNEALNARVAALAEARLSDAYRITDKQERYAQVDVIKSETIATLLAEDETLDENELGEILHAIEKNVVRSRVLAGEPRIDGREKDMIRGLDVRTGVLPRTHGSALFTRGETQALVTATLGTARDAQVLDELMGERTDTFLFHYNFPPYSVGETGMVGSPKRREIGHGRLAKRGVLAVMPDMDKFPYTVRVVSEITESNGSSSMASVCGASLALMDAGVPIKAAVAGIAMGLVKEGDNYVVLSDILGDEDHLGDMDFKVAGSRDGISALQMDIKIEGITKEIMQVALNQAKGARLHILGVMEQAINAPRGDISEFAPRIHTIKINPDKIKDVIGKGGSVIRALTEETGTTIEIEDDGTVKIAATDGEKAKHAIRRIEEITAEIEVGRVYTGKVTRIVDFGAFVAIGGGKEGLVHISQIADKRVEKVTDYLQMGQEVPVKVLEVDRQGRIRLSIKEATEQSQPAAAPEAPAAEQGE

binding result [2]: binds
B2: RNase E(628–843) (domain or fragment)
chain: ERTEGSDNREENRRNRRQAQQQTAETRESRQQAEVTEKARTADEQQAPRRERSRRRNDDKRQAQQEAKALNVEEQSVQETEQEERVRPVQPRRKQRQLNQKVRYEQSVAEEAVVAPVVEETVAAEPIVQEAPAPRTELVKVPLPVVAQTAPEQQEENNADNRDNGGMPRRSRRSPRHLRVSGQRRRRYRDERYPTQSPMPLTVACASPELASGKVW

stoichiometry N (RhlB protomer per RNase E protomer) [3]: 1
B3: RNA helicase B (RhlB), recombinant, coexpressed with RNase E from pRSF_rnerhlB (enzyme)
chain: MSKTHLTEQKFSDFALHPKVVEALEKKGFHNCTPIQALALPLTLAGRDVAGQAQTGTGKTMAFLTSTFHYLLSHPAIADRKVNQPRALIMAPTRELAVQIHADAEPLAEATGLKLGLAYGGDGYDKQLKVLESGVDILIGTTGRLIDYAKQNHINLGAIQVVVLDEADRMYDLGFIKDIRWLFRRMPPANQRLNMLFSATLSYRVRELAFEQMNNAEYIEVEPEQKTGHRIKEELFYPSNEEKMRLLQTLIEEEWPDRAIIFANTKHRCEEIWGHLAADGHRVGLLTGDVAQKKRLRILDEFTRGDLDILVATDVAARGLHIPAVTHVFNYDLPDDCEDYVHRIGRTGRAGASGHSISLACEEYALNLPAIETYIGHSIPVSKYNPDALMTDLPKPLRLTRPRTGNGPRRTGAPRNRRRSG
